# From US20220204643A1 (published 2022)
# T1: Egf like and emi domain containing 1, pseudogene (human, UniProt Q0D2K5 1-195)
# T1 construct: on protein array; also called EGFEM1P
# T1 sequence: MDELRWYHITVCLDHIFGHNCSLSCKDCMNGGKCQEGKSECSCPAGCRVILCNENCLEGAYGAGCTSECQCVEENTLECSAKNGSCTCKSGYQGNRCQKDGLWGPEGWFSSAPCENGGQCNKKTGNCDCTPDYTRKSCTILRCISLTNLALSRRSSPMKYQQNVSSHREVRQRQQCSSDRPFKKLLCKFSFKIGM
# T2: HSPA (Hsp70) binding protein 1, transcript variant 2 (human, UniProt Q9NZL4 1-359)
# T2 construct: also called HSPBP1
# T2 sequence: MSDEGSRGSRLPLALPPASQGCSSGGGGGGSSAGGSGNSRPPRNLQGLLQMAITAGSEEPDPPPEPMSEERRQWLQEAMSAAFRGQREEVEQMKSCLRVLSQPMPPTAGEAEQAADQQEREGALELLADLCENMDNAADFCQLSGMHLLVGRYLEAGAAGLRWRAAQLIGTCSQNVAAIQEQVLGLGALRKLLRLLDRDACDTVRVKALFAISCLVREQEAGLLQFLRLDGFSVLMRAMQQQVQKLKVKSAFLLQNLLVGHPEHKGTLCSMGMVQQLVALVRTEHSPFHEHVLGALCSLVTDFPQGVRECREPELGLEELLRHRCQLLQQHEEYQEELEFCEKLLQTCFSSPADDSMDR
# T3: Long intergenic non-protein coding rna 242 (human, UniProt Q5T6M2 1-205)
# T3 construct: also called LINC00242
# T3 chain: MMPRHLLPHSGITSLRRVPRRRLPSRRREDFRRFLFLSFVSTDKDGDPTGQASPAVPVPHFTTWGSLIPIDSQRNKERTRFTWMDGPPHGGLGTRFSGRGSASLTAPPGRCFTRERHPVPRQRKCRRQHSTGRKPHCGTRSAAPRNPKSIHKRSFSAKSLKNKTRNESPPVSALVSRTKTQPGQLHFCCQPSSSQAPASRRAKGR
# T4: GRB10 interacting GYF protein 1, transcript variant X10 (human, UniProt O75420 1-1035)
# T4 construct: also called GIGYF1
# T4 sequence: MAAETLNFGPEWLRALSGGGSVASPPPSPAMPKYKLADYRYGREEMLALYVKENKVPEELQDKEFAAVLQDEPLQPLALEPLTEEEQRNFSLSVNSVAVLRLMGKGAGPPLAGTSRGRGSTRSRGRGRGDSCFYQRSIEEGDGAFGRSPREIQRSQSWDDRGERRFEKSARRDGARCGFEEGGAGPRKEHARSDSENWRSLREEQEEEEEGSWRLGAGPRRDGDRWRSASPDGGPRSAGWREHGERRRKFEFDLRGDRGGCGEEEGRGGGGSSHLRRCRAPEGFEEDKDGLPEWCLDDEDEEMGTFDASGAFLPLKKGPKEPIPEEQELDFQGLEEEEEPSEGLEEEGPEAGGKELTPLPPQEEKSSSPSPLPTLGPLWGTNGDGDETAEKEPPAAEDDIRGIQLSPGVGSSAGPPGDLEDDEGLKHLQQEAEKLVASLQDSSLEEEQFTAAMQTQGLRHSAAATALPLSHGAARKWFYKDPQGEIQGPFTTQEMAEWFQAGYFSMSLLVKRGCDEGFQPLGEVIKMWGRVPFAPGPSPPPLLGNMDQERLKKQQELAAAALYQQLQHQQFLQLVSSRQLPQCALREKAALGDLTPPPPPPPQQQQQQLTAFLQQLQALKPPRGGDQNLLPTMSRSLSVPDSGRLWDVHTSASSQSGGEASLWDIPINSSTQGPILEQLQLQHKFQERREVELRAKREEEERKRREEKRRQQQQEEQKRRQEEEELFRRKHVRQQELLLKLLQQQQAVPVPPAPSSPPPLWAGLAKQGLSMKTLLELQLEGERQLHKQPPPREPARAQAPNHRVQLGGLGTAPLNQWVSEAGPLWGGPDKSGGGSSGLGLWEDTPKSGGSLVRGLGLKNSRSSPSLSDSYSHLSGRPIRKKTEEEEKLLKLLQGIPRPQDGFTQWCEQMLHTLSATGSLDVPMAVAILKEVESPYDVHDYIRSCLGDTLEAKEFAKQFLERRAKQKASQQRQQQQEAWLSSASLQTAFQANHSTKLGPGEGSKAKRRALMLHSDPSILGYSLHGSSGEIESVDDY
# T5: Kirre like nephrin family adhesion molecule 1 (human, UniProt Q96J84 17-757, limits assumed)
# T5 sequence: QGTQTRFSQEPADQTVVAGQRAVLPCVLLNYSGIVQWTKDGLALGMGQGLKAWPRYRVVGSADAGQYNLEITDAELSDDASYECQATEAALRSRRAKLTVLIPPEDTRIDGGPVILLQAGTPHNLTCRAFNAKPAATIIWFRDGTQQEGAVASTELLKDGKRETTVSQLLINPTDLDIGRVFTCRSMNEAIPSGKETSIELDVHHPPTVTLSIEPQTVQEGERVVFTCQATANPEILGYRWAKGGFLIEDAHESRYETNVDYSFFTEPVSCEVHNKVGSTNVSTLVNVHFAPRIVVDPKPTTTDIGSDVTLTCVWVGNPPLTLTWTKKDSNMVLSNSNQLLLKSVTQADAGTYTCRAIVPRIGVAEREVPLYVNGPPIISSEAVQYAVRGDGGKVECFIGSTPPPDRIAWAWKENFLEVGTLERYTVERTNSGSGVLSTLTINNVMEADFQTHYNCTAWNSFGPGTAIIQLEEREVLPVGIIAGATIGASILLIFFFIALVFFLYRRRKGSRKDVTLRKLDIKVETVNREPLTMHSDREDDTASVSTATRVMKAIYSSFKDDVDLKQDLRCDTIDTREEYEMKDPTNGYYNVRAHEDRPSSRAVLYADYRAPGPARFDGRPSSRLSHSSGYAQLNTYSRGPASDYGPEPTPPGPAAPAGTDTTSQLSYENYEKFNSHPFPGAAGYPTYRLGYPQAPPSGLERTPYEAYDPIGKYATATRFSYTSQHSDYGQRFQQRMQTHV
# B1: TREC1003 (antibody, V domains shown)
# VH: QVQLVQSGSEVKKPGASVRLACKTSGYTFSNYGVSWVRQGPGRGLEWLGWISGYNGRTHSADKFRDRVTLTTDTSTTTVYVDLKNLTSDDTAVYYCARVGTSHWYSDSWGQGTLVTVSS
# VL: QSVLTQPPSVSGAPGQRVTISCAGSYSNIGAGYDVHWYRQLPGTAPTLLIYSNNNRPSGVSDRFSGSKSGTSASLAITGLQAEDEADYYCQSFDSSLSRSVFGTGTKVTVL
# B2: TBRE1036 (antibody, V domains shown)
# VH: QVQLVESGGGVVQPGRSLRLSCAASGFTFSSYAMHWVRQAPGKGLEWVAVISYDGSNKYYADSLKGRFTISRDNSKDTLYLQVNSLRPEDTAVYYCARVNIAAAGTLDYWGQGTLVTVSS
# VL: EIVLTQSPGTLSLSPGERATLSCRASQSVSSRYLAWYQQKPGQAPRLLIHGASSRATGIPDRFSGSGSGTDFTLTISRLEPEDFAVYYCQQYGSAWTFGQGTKVEIKR
# notes: VH/VL only
# B3: TSAR1003 (antibody, V domains shown)
# VH: QLQLQESGPGLVKPSETLSLTCTVSGVSIGTSSYYWGWIRQPPAKGLEWIGSIYYSGSTYYNPSLKNRVTISVDTSKNHFSLKLSSVTAADTAVYYCARHRTGQYYYNSWGQGTLVTVSS
# VL: SSELTQDPAVSVALGQTVRITCQGDSLRTDYATWYQQKPGQAPILVFYGEDNRPSGIPDRFSGSSSGNTASLTITGAQAEDEADYYCNSRDSSGHHWVFGGGTKLTVL
# B4: TSAR1005 (antibody, V domains shown)
# VH: QVQLVESGGGVVQPGRSLRLSCVASGFTFSNYAMHWVRQAPGKGLEWVAVIWYDGSNEYYRDSVEGRFTISRDSSKNTLYLLVNSLRAEDTAVYYCARGNGPKSGKYSDFDYWGQGTLVTVSS
# VL: DVVMTQSPLSLPVTLGQAASISCRSSQSLVYSDGNTYLNWFQQRPGQSPRRLIYKVSNRESGVPDRFSGSGSGTDFTLQISRVEAEDVGIYYCMQGAHWPPITFGQGTRLEIKR
# B5: TSAR1001 (antibody, V domains shown)
# VH: EVQLVESGGGMVQPGESLRLSCAASGFDFTSYWMAWVRQAPGKGLEWVANMNADGSEKHYVDSVKGRFSISRDNAKKLLFLQMNSLTVDDTGVYYCARDEGRREGAWGQGTQVIVSA
# VL: EIVLTQSPATLSFSPGDRATLSCRASQNINRFLAWYQQKPGQTPRLLIYDASTRATGIPARFSGSGSGTDFSLIISSLEPEDFAIYYCQQRNNWPITFGPGTKVDVK
# B6: TSAR1006 (antibody, V domains shown)
# VH: QVQLVQSGTEVKKPGASVKVSCKASGYRFTSNGISWVRQAPGQGLQWMGWISTDSGNTNYAQSFQGRVTLTRDTSTNTAYLELRRLRSEDTAVYYCARDKSWYFDYWGQGTLVSVSS
# VL: SYELTQPPSVSVSPGQTARITCSGDALPKKYVFWYQQRSGQAPVLVIYEDSKRPSGIPDRFSGSSSGTLATLTISGAQVEDEADYYCYSTDTIGNWVFGGGTRLTVL
# B7: TPRO1002 (antibody, V domains shown)
# VH: EVQLVESGGGVIKPGGSLKLSCEGSGFTLDDYVMHWVRQAPGKGLEWISSISGDGTRTYYADSVKGRFTISRNNGKNSLYLQMDSLRREDTALYYCAKDARLAYYGMDVWGQGTTVTVSS
# VL: QSALTQPASVSGSPGQSITISCTGTSSDIGGYDLVSWYQHHPGKAPKLVISEGSKRPSGVSNRFFGSKSGNTASLTISGLQAEDEADYYCCSFTGTSTFVFGTGTKVTVL
# Columns and labels:
# [1] = molecular target: T6, killer cell lectin like receptor C1, transcript variant 3 (human, UniProt P26715 1-233)
# T6 construct: also called KLRC1
# [2] = molecular target: T1, Egf like and emi domain containing 1, …; assay: protein array
# [3] = molecular target: T7, coiled-coil domain containing 74B, transcript variant 2 (human, UniProt Q96LY2 1-380)
# T7 construct: also called CCDC74B
# [4] = molecular target: T8, heat shock protein family A (Hsp70) member 2 (human, UniProt P54652 1-639)
# T8 construct: also called HSPA2
# [5] = molecular target: T9, BCL2 associated athanogene 2 (human, UniProt O95816 2-211)
# T9 construct: also called BAG2
# [6] = molecular target: T2, HSPA (Hsp70) binding protein 1, …
# [7] = molecular target: T10, neural retina leucine zipper, transcript variant X4 (human, UniProt P54845 1-237)
# T10 construct: also called NRL
# [8] = molecular target: T11, C-X-C motif chemokine receptor 4, transcript variant 2 (human, UniProt P61073 1-352)
# T11 construct: also called CXCR4
# [9] = molecular target: T3, Long intergenic non-protein coding rna …
# [10] = molecular target: T4, GRB10 interacting GYF protein 1, …
# [11] = molecular target: T5, Kirre like nephrin family adhesion …
# [12] = molecular target: T12, Ankyrin repeat domain 20 family member a5, pseudogene (human, UniProt A0PJZ0 1-165)
# T12 construct: also called ANKRD20A5P
# T12 sequence (A0PJZ0 whole entry, the tested form may be a part): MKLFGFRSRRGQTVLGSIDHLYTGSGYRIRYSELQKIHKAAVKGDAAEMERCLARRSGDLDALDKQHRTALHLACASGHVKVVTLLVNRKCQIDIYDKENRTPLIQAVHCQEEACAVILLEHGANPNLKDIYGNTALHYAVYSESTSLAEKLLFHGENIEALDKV
# T6 sequence (P26715 other isoform, or with tags, fused parts or gaps mutant limits assumed): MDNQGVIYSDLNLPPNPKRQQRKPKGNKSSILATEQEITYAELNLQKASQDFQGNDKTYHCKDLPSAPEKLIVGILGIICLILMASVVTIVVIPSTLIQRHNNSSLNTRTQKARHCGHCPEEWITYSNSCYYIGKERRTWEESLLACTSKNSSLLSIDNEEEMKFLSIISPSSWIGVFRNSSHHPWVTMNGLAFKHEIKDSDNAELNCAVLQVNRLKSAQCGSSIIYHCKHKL
# T11 sequence (P61073 whole entry, change not shown): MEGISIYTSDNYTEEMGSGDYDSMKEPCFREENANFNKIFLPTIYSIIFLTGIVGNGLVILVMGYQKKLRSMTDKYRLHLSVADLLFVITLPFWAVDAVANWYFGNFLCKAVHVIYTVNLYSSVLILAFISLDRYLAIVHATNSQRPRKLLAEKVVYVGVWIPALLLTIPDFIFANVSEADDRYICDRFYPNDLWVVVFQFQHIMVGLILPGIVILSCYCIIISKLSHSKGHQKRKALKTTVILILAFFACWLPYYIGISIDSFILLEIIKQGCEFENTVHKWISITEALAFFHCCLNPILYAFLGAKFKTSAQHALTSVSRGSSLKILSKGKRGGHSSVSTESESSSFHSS
# T7 sequence (Q96LY2 other isoform, or with tags, fused parts or gaps mutant limits assumed): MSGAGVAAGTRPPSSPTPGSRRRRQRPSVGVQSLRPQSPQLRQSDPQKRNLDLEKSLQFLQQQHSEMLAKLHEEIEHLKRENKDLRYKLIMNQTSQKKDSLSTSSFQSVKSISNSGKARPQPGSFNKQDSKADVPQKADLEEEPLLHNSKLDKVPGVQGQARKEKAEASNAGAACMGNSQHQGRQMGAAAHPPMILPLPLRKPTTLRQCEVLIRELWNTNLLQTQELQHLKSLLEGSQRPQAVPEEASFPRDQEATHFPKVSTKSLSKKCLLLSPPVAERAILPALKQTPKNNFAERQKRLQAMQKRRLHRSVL
# T8 sequence (P54652 whole entry): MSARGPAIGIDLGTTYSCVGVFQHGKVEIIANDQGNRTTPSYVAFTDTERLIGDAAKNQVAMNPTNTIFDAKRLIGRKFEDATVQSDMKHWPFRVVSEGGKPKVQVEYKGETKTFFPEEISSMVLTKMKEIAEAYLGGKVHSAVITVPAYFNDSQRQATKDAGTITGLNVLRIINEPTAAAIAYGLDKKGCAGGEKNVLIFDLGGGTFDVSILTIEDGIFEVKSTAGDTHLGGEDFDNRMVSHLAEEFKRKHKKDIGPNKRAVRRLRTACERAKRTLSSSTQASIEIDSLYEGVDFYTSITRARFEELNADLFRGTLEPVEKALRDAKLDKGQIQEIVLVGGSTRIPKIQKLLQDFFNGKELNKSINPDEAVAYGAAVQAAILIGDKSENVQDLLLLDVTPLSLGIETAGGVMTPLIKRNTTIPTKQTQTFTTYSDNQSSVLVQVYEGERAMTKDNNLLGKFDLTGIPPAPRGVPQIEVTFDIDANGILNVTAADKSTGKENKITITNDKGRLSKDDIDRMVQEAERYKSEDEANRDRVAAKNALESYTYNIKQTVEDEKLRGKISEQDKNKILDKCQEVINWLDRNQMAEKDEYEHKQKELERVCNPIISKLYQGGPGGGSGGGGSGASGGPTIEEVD
# T10 sequence (P54845 whole entry, change not shown): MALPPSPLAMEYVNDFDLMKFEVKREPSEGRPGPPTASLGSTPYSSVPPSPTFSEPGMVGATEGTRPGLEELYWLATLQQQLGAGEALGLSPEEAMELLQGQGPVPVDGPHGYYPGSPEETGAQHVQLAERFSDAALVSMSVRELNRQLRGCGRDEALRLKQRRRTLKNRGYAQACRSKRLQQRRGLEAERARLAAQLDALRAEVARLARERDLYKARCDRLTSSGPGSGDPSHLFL
# T9 sequence (O95816 2-211 limits assumed): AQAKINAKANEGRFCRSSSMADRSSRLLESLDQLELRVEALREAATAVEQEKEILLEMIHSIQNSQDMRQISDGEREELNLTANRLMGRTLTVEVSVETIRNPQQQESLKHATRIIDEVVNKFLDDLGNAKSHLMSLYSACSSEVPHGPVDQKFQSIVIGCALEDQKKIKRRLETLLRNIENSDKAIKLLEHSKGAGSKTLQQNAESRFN
binder,measurement,setting,value
B1,binding result,[1],binds
B2,binding result,[2],binds
B3,binding result,[3],binds
B4,binding result,[4],binds
same,binding result,[5],binds
same,binding result,[6],binds
B5,binding result,[7],binds
B6,binding result,[8],binds
same,binding result,[9],binds
B7,binding result,[10],binds
same,binding result,[11],binds
same,binding result,[12],binds
